Results reported in US20160264674A1 (ADURO BIOTECH HOLDINGS EUROPE B V, published 2016).
Where two headings read alike, the source gives them in different places.

Key:
FLAG-tagged human APRIL [1] = biological target: T1, FLAG-tagged human APRIL (human, UniProt O75888 105-250, limits assumed); assay: FLAG-APRIL ELISA after 10 min at 70 °C, antibody at 0.316 µg/ml
T1 construct: also called FLAG-tagged APRIL; FLAG-APRIL; not shown: FLAG tag
T1 sequence (looked up): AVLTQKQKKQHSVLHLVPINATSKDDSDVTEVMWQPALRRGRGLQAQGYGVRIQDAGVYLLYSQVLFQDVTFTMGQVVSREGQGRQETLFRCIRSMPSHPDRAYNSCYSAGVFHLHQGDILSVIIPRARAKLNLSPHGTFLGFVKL

FLAG-tagged human APRIL [2] = biological target: T1, FLAG-tagged human APRIL; assay: FLAG-APRIL ELISA after 10 min at 70 °C, antibody at 1 µg/ml
FLAG-tagged human APRIL [3] = biological target: T1, FLAG-tagged human APRIL; assay: FLAG-APRIL ELISA after 10 min at 65 °C, antibody at 0.316 µg/ml
FLAG-tagged human APRIL [4] = biological target: T1, FLAG-tagged human APRIL; assay: ELISA: FLAG-tagged human APRIL captured on anti-FLAG plate, purified antibody titrated
FLAG-tagged human APRIL [5] = biological target: T1, FLAG-tagged human APRIL; assay: FLAG-APRIL ELISA after 10 min at 70 °C, antibody at 3.16 µg/ml
FLAG-tagged human APRIL [6] = biological target: T1, FLAG-tagged human APRIL; assay: ELISA: FLAG-tagged human APRIL captured on anti-FLAG plate, purified antibody titrated; remark: listed apart in the source
FLAG-tagged human APRIL [7] = biological target: T1, FLAG-tagged human APRIL; assay: competition ELISA: antibody premixed with FLAG-tagged APRIL, added to coated Fc-BCMA, anti-FLAG HRP
Description: Again, plasmids encoding the VH and VL constructs were mixed in a 1:3 ratio (32 μg) and transiently expressed by transfection into (8*10⁶) HEK293T human embryonic kidney cells (HEK293T), using Lipofectamine 2000 transfection reagent (Invitrogen) according to the manufacturer's instructions. Supernatants were harvested (10 ml) and antibodies were purified using MabSelect Sure Protein A resin according to the manufacturer's instructions (GE Healthcare). Buffer was exchanged for PBS using Zeba desalting columns (Thermo Scientific). The concentration of purified antibodies was determined based on OD280 (Nanodrop ND-1000). The binding of the purified antibodies to APRIL was established using the above described APRIL ELISA. The blocking capability of the humanized antibodies with BCMA and TACI receptors, was tested in a competition ELISA. In these ELISAs, all incubation steps were followed by a wash step with PBST (PBS with 0.01% Tween 20). Maxisorb 96-wells plates (Nunc) were coated with 0.5 μg/ml Fc-BCMA (R&D Systems) or Fc-TACI (R&D Systems) and incubated overnight at 4° C. […] Reactions were stopped with 100 μl 0.5 M H2504 and absorbances were measured at 450 and 620 nm. Calculated EC₅₀ and IC₅₀ representing the concentration at which 50% of the total binding signal or blocking is observed are represented in Table 5. […]

FLAG-tagged human APRIL [8] = biological target: T1, FLAG-tagged human APRIL; assay: as above; remark: listed apart in the source
Description: A subset of humanized antibodies described above was selected for further analyses. Again, plasmids encoding the VH and VL constructs were mixed in a 1:3 ratio (32 μg) and transiently expressed by transfection into (8*10⁶) HEK293T human embryonic kidney cells (HEK293T), using Lipofectamine 2000 transfection reagent (Invitrogen) according to the manufacturer's instructions. Supernatants were harvested (10 ml) and antibodies were purified using MabSelect Sure Protein A resin according to the manufacturer's instructions (GE Healthcare). Buffer was exchanged for PBS using Zeba desalting columns (Thermo Scientific). The concentration of purified antibodies was determined based on OD280 (Nanodrop ND-1000). The binding of the purified antibodies to APRIL was established using the above described APRIL ELISA. The blocking capability of the humanized antibodies with BCMA and TACI receptors, was tested in a competition ELISA. In these ELISAs, all incubation steps were followed by a wash step with PBST (PBS with 0.01% Tween 20). Maxisorb 96-wells plates (Nunc) were coated with 0.5 μg/ml Fc-BCMA (R&D Systems) or Fc-TACI (R&D Systems) and incubated overnight at 4° C. Next, humanized antibodies and dilutions thereof were incubated, premixed with FLAG-tagged APRIL, for 1 hour, which was followed by an incubation of 1 hour with anti-FLAG HRP-conjugate (Sigma). Immunoreactivity was visualized with 100 μl TMB Stabilized Chromagen (Invitrogen). Reactions were stopped with 100 μl 0.5 M H2504 and absorbances were measured at 450 and 620 nm. Calculated EC₅₀ and IC₅₀ representing the concentration at which 50% of the total binding signal or blocking is observed are represented in Table 5.
The antibodies were tested for binding, blockade, and stability as described before.

FLAG-tagged human APRIL [9] = biological target: T1, FLAG-tagged human APRIL; assay: FLAG-APRIL ELISA after 10 min at 65 °C, antibody at 1 µg/ml
FLAG-tagged human APRIL [10] = biological target: T1, FLAG-tagged human APRIL; assay: FLAG-APRIL ELISA after 10 min at 65 °C, antibody at 3.16 µg/ml
FLAG-tagged human APRIL [11] = biological target: T1, FLAG-tagged human APRIL; assay: FLAG-APRIL ELISA after 10 min at 70 °C, antibody at 3.16 µg/ml; remark: listed apart in the source
Description: (§1) The plasmids encoding the VH and VL constructs were mixed in a 1:3 ratio (4 μg in total) and transiently expressed by transfection into HEK293T human embryonic kidney cells (HEK293T/17, ATCC-CRL-11268), using Lipofectamine 2000 transfection reagent (Invitrogen) following the manufacturer's instructions. Cell supernatants were harvested after 5 days and tested for expression of antibody and binding to APRIL using an enzyme-linked immuno assay (ELISA). In these ELISAs, all incubation steps were followed by a wash step with PBST (PBS with 0.01% Tween 20). Maxisorb 96-wells plates (Nunc) were coated with 0.5 μg/ml anti-FLAG (Sigma) or anti-IgG4 (Jackson laboratories) and incubated overnight at 4° C. Subsequently the anti-FLAG coated 96-wells plates were incubated with FLAG-tagged human APRIL for 1 hour at room temperature. Next, supernatants and dilutions thereof were incubated for 1 hour, which was followed by an incubation of 1 hour with mouse anti-human IgG HRP-conjugate (Southern Biotechnology).
(§2) To determine the effect of humanization on the stability of the antibodies, humanized antibodies were exposed to a range of temperatures for 10 minutes. Purified antibodies were diluted to 3.16 μg/ml and dilutions thereof in PBS. Next, these solutions were exposed to 65° C. or 70° C. and residual binding after heat treatment of the antibodies was measured using the FLAG-tagged APRIL ELISA assay as described before (see Table 6).

FLAG-tagged human APRIL [12] = biological target: T1, FLAG-tagged human APRIL; assay: FLAG-APRIL ELISA after 10 min at 65 °C, antibody at 0.316 µg/ml; remark: listed apart in the source
Description: as §1, §2

FLAG-tagged human APRIL [13] = biological target: T1, FLAG-tagged human APRIL; assay: FLAG-APRIL ELISA after 10 min at 65 °C, antibody at 3.16 µg/ml; remark: listed apart in the source
Description: as §1, §2

FLAG-tagged human APRIL [14] = biological target: T1, FLAG-tagged human APRIL; assay: FLAG-APRIL ELISA after 10 min at 70 °C, antibody at 0.316 µg/ml; remark: listed apart in the source
Description: as §1, §2

FLAG-tagged human APRIL [15] = biological target: T1, FLAG-tagged human APRIL; assay: FLAG-APRIL ELISA after 10 min at 70 °C, antibody at 1 µg/ml; remark: listed apart in the source
Description: as §1, §2

FLAG-tagged human APRIL [16] = biological target: T1, FLAG-tagged human APRIL; assay: FLAG-APRIL ELISA after 10 min at 65 °C, antibody at 1 µg/ml; remark: listed apart in the source
Description: as §1, §2

B1: VH14_1.VL15 (antibody, human IgG4, V domains shown)
VH: QVQLVQSGAEVKKPGASVKVSCKASGYTFTSYVMHWVRQAPGQGLEWMGYINPYNDAPKYNEKFKGRVTMTSDTSASTAYMELSSLRSDDTAVYYCARGLGYALYYAMDYWGQGTTVTVSS
VL: DIVMTQSPSTLSASVGDRVTITCKASQNVGNNVAWYQQKPGKAPKLLISSASNRDSGVPSRFSGSGSGTEFTLTISSLQPDDFATYFCQQYNIYPFTFGQGTKLEIK
notes: VH14 with R72S; rest is human IgG4 (S241P, Kabat) and human kappa; also called 14_1.15; antibody 14_1.15
B1 was tested, and the “% residual binding after heat treatment (room temperature = 100%)” value (from here on “% residual binding after heat treatment”) (FLAG-tagged human APRIL [1]) was 63%, the “% residual binding after heat treatment” value (FLAG-tagged human APRIL [2]) was 38.3% and the “% residual binding after heat treatment” value (FLAG-tagged human APRIL [3]) was 71%. For the same binder, the EC50 (FLAG-tagged human APRIL [4]) was 1290 pM, the “% residual binding after heat treatment” value (FLAG-tagged human APRIL [5]) was 38% and the EC50 (FLAG-tagged human APRIL [6]) was 1290 pM. For the same binder, the IC50 (FLAG-tagged human APRIL [7]) was 2630 pM, the IC50 (FLAG-tagged human APRIL [8]) was 2630 pM and the “% residual binding after heat treatment” value (FLAG-tagged human APRIL [9]) was 46.1%. For the same binder, the “% residual binding after heat treatment” value (FLAG-tagged human APRIL [10]) was 59.9%.

B2: hAPRIL.01A (antibody, mouse IgG1, kappa, V domains shown)
VH: EVQLQQSGPELVKPGASVKMSCKASGYTFTSYVMHWVKQKPGQGLEWIGYINPYNDAPKYNEKFKGKATVTSDKSSGTAYMELSSLTSEDSAVYYCARGLGYALYYAMDYWGQGTSVTVSS
VL: DIVMTQSQKFKSTSVGDRVSVTCKASQNVGNNVAWYQQKAGQSPKALISSASNRDSGVPDRFTGSGSGTDFTLTISNVQSEDLADYFCQQYNIYPFTFGSGTKLEIKR
notes: Mouse antibody; also called mouse hAPRIL.01A antibody
With B2 the “% residual binding after heat treatment” value (FLAG-tagged human APRIL [11]) was 6.7%, the “% residual binding after heat treatment” value (FLAG-tagged human APRIL [12]) was 13.7% and the EC50 (FLAG-tagged human APRIL [4]) was 160 pM. For the same binder, the “% residual binding after heat treatment” value (FLAG-tagged human APRIL [13]) was 27.1%, the “% residual binding after heat treatment” value (FLAG-tagged human APRIL [14]) was 11.2% and the EC50 (FLAG-tagged human APRIL [6]) was 160 pM. The “% residual binding after heat treatment” value (FLAG-tagged human APRIL [15]) was 4.9%, the IC50 (FLAG-tagged human APRIL [7]) was 460 pM and the IC50 (FLAG-tagged human APRIL [8]) was 460 pM. The “% residual binding after heat treatment” value (FLAG-tagged human APRIL [16]) was 8.4%.
